Measured values: the supplement of paper PMC10724198
± gives the standard deviation of the averaged measurements.

What follows are sequences tested on Saccharomyces cerevisiae (assay: protein stability index of tFT-peptide fusion (C-terminal peptide) (PSI (0-1 scale)); higher = more stable (slower turnover)). Conditions: genetic background: wild type; temperature: 30 C.
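Note: PSI is a weighted mean of sequencing reads over stability bins, variants kept only with over 10 reads, mCherry proximal and sfGFP distal, peptide attached via GGGS linker.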

Sequence	protein stability index
RSRATIGSQILS	0.688 ± 0.01
VVGFVPVWRAGS	0.593 ± 0.031
CVSRRRGGEIGG	0.655 ± 0.044
RKKKKKKENKRR	0.754 ± 0.054
FVALWVGCCWLG	0.542 ± 0.011
YTWVDKNDRTKR	0.736 ± 0.11
VHLCLPPLPLHT	0.651 ± 0.019
GGGCLRGFWCVW	0.724 ± 0.046
PPPPPAPLLLLP	0.78 ± 0.1
PPSPPPPPKIPP	0.627 ± 0.055
LPPPPRPPLPSP	0.737 ± 0.068
FTISALSSTPRP	0.669 ± 0.042
NFEVHRCGISLR	0.681 ± 0.0075
FVVVVVGGGWGG	0.516 ± 0.0068
AGLSVRSILLSI	0.599 ± 0.039
LSTCHSPSLPAT	0.739 ± 0.049
VIGWSGGCRWSV	0.73 ± 0.027
KRNKDYGSFEVT	0.629 ± 0.029
IGVRSTRFCAIR	0.655 ± 0.0093
FLCLVASLFRFA	0.585 ± 0.043
SDKRMGSLQMSS	0.712 ± 0.033
RREVFIPSTRVL	0.698 ± 0.044
GACFLGGRLCGR	0.686 ± 0.024
FIIIKTKKMTMK	0.7 ± 0.064
IGGGWIGRYVSR	0.684 ± 0.033
QKIIEDNQNTGR	0.663 ± 0.016

Sequence	protein stability index
KIDKKSKKKKEI	0.684 ± 0.017
FVRAVLRLSSVF	0.645 ± 0.052
LLLPPRPPPSVP	0.742 ± 0.15
QESSDSRHATIR	0.624 ± 0.044
RSFPYLLFPPPS	0.713 ± 0.046
KAGHEPRLTRKQ	0.667 ± 0.022
LPSPTTPRSPPP	0.729 ± 0.1
PTLRAPLRYGYL	0.675 ± 0.022
AERCVLEKSPRL	0.743 ± 0.064
LLCTSSGYWAWK	0.699 ± 0.0087
FLLPPPFLPLPL	0.691 ± 0.028
CPPRPLHSPLPP	0.694 ± 0.022
GLGVWDLRLGWG	0.701 ± 0.011
DKVLQSLALKCK	0.508 ± 0.0074
IGVVKHGAAEKV	0.711 ± 0.069
PLSYRRFTRLPR	0.68 ± 0.066
RPYKINNNIEVK	0.676 ± 0.01
LATPPPPPLSPP	0.789 ± 0.19
LRGVGAGPEDVG	0.694 ± 0.017
FIGLGPGVGGVW	0.704 ± 0.028
VNENNQKGNKKT	0.654 ± 0.12
GGGGVVAGVCGG	0.667 ± 0.098
WEVLGGFVWASC	0.6828 ± 0.0045
PLPPHAPPNSAP	0.656 ± 0.079
EGSGLVVANAYP	0.667 ± 0.022
AGLACWGGVGER	0.693 ± 0.0079

Sequence	protein stability index
PPRLPLSHPPEP	0.634 ± 0.022
TTMNELPKSIKK	0.739 ± 0.042
GCRLFGLMFFDA	0.682 ± 0.063
PLPPIPPSTPST	0.726 ± 0.017
LASEPLPPYPPS	0.704 ± 0.052
VSMPVGWRSWGG	0.694 ± 0.013
KKKKKNKKNKKY	0.709 ± 0.038
GFGEFVLSSGWG	0.743 ± 0.018
LTLPPRPPSPPS	0.675 ± 0.08
GRAPPGHSLPVR	0.7187 ± 0.0071
VGGRLRECVRVG	0.628 ± 0.078
DGCRLGDFLNRV	0.66 ± 0.042
CPPRIAFPCGIQ	0.649 ± 0.094
EPGGSKRSGGRL	0.686 ± 0.03
DIRGGDMGEWRE	0.683 ± 0.023
GPKSPLVCSPPP	0.657 ± 0.13
GVLLCVDGSGGE	0.762 ± 0.054
KQKKAKKQKKKK	0.69 ± 0.099
RPRELHNSETVY	0.683 ± 0.025
CFASTFVSPILH	0.694 ± 0.03
SPPPGHPPLVPN	0.767 ± 0.013
GPGFGEFVWSLW	0.692 ± 0.044
PPRAPPPPVPPL	0.598 ± 0.03
FHPRLGVRLGIT	0.632 ± 0.046
RSMLVSRQSIGV	0.695 ± 0.019
LFGSMGVLGIGR	0.672 ± 0.061

Sequence	protein stability index
SSSHRPTAPSSR	0.669 ± 0.05
AEAKRKSTYKRW	0.607 ± 0.026
HLPLPPRLLTHV	0.654 ± 0.042
SGDCRLPLPRSP	0.711 ± 0.022
LLGGLHIPHPLR	0.681 ± 0.052
PPLPSTAPPSPL	0.735 ± 0.0096
RGVGVRYGVARR	0.6695 ± 0.006
GGGLGGGWGVWG	0.657 ± 0.025
SHPLLPPHLPPP	0.682 ± 0.082
VYHQLNDRLSLG	0.70389 ± 0.00025
SGLLGVSIHGLR	0.654 ± 0.053
GVGSWSCGGSVH	0.6634 ± 0.0034
FGWKTGGRGTVM	0.742 ± 0.04
RDNKTHSKRAYG	0.648 ± 0.024
RRERQRRARTEI	0.6876 ± 0.0036
RQSSPKQDRKPS	0.679 ± 0.048
PPPPLRSPPRSF	0.713 ± 0.02
HIHQDPGVIRWG	0.7216 ± 0.0015
PPPPPLLPPPPA	0.721 ± 0.02
CSSLPPCPYSLP	0.654 ± 0.12
KNIKENIGDKNK	0.646 ± 0.06
VLSCCTAVAYPF	0.593 ± 0.028
HPRWTPPTQSAS	0.716 ± 0.049
PRRPCDPLRAPH	0.737 ± 0.15
SACCNFAPAFGQ	0.662 ± 0.019
PIATTSVDAGRS	0.634 ± 0.019

Sequence	protein stability index
FPRPACRSTHIL	0.671 ± 0.065
AGVECADRVLWG	0.774 ± 0.066
WPSHVTLPYGLV	0.6545 ± 0.0057
DRLGGDWMERGG	0.688 ± 0.032
EQSWAIQKVRQG	0.737 ± 0.025
VVLSCGIPGCVF	0.572 ± 0.028
RARYGPSYTLPL	0.642 ± 0.027
WCRVCNRLVVGV	0.5258 ± 0.0015
LPPPPIAPPLTP	0.689 ± 0.063
QYGMSSQGGGHN	0.7312 ± 0.0017
LYDCQHTFILSR	0.643 ± 0.047
PPEPSYPPLPPR	0.717 ± 0.011
VRKKRKKELAKV	0.794 ± 0.086
PISAGGGVVWVE	0.6491 ± 0.0047
PPPLPSPPPRLP	0.693 ± 0.014
LDAVRCRDKAVV	0.6537 ± 0.0036
GSRSLISLRTGA	0.604 ± 0.037
PPPPFPPPPPHS	0.719 ± 0.039
LSRPPASPPHPP	0.71468 ± 0.00055
PPLAPPTPHPLS	0.716 ± 0.029
RGGGRGGRPRMC	0.607 ± 0.085
RSRRFPPTRPPL	0.73956 ± 0.00073
WGRARCAVGVSG	0.629 ± 0.0092
FFSMVFVFGFRA	0.5 ± 0.015
ADMPPEFKPALS	0.637 ± 0.073
PPPSPPSTTPPL	0.672 ± 0.07

Sequence	protein stability index
GARPRSGVRGGT	0.723 ± 0.022
NSLLSFLPDPFH	0.749 ± 0.0096
GGMEGRVACSAQ	0.74 ± 0.057
SKKKITGGEAGH	0.677 ± 0.046
TSPGLPLPLPSP	0.716 ± 0.0048
VPPPTRRTPPAP	0.734 ± 0.052
WTLSGHKHIPED	0.736 ± 0.013
LHSNFGSSVFSL	0.713 ± 0.012
LLLQLSPLLTSL	0.646 ± 0.019
DLSDGHFSTASP	0.678 ± 0.0069
RSRCHPRLPRAV	0.707 ± 0.03
PPPALVPRPPPR	0.679 ± 0.0084
RPAFSPDVSPPS	0.716 ± 0.013
NIKKKINNTVKN	0.666 ± 0.0073
LVLVASVGVGRV	0.556 ± 0.057
CFLFSFSLFPFV	0.618 ± 0.066
PPPLPPPPASPP	0.685 ± 0.01
VDTTISVCCSVC	0.68339 ± 0.00029
GRRQGKRRIGRK	0.652 ± 0.036
RVGVEYGETGGG	0.732 ± 0.29
NNEETIKQKNLQ	0.702 ± 0.025
GPLPPPFSALPP	0.703 ± 0.024
GCGVWRVLRVLR	0.642 ± 0.027
APAVPITPPPFP	0.696 ± 0.05
SAPPDVAPLFSP	0.74 ± 0.053
LGWGGGGPLSGG	0.7197 ± 0.0054

Sequence	protein stability index
TPPPLRTASLLP	0.67 ± 0.1
TAVPRARRRVVR	0.712 ± 0.018
KKSKDKRNPKKK	0.692 ± 0.028
LAVKGIVNDSTI	0.683 ± 0.0084
CGQKREFKEGGG	0.634 ± 0.0059
KKRMKKKTKNKN	0.652 ± 0.019
SRFSRAVSVARV	0.666 ± 0.023
TMCRGGVSSQDL	0.662 ± 0.057
PCGGGGRECVRG	0.808 ± 0.1
RVLCYHFSPGVV	0.656 ± 0.057
SLLVSRVVFRGN	0.769 ± 0.12
QISLPDASLPPS	0.67 ± 0.079
QGKRRREDGIGG	0.711 ± 0.072
MPTSYDGCDRGH	0.713 ± 0.011
GWGVGGKVGQAG	0.6814 ± 0.0047
DFKHKYREKKKF	0.615 ± 0.062
PLTEELCFSAWG	0.734 ± 0.031
PPPTPAPLLVPS	0.598 ± 0.0091
YINQWLNVKHGD	0.635 ± 0.058
LGRCRQTERETS	0.649 ± 0.089
VVIRVKDEPFIM	0.6781 ± 0.0067
LPHVALFLLPAL	0.638 ± 0.0064
LLVVSIGSCFFG	0.572 ± 0.065
RNRSNTQAKVIR	0.6725 ± 0.004
VYVFGCVVGSGW	0.639 ± 0.032
ASAPPHVSAPSP	0.654 ± 0.012

Sequence	protein stability index
LYVIGGTDLVGG	0.72 ± 0.04
SSRVLFRVSVLR	0.646 ± 0.09
LCPRIAIVHPPS	0.606 ± 0.027
PPPPPSPLPPRP	0.624 ± 0.045
YNVRNVSVHQLG	0.644 ± 0.015
KFARHVLIQSHV	0.559 ± 0.04
RYLAEKAVLTHN	0.659 ± 0.012
SKITENTKKKGK	0.658 ± 0.019
PPPPPPAASSSP	0.692 ± 0.047
CELCVCKHGGKG	0.702 ± 0.013
PHMRSPTPLLRP	0.697 ± 0.077
QKDLDGSLANST	0.692 ± 0.025
PMVLLDTIQRHT	0.721 ± 0.033
KKKKKHTQYKRK	0.6997 ± 0.0026
VEWGGDGVFWTG	0.8 ± 0.023
AHYPGRAHLLCL	0.607 ± 0.02
RVCDSAPKRNRH	0.676 ± 0.018
GVSPSCILPLIL	0.653 ± 0.011
PSGFLFPLSPPA	0.698 ± 0.01
NFAIYPTLYKYD	0.667 ± 0.016
